# Experimental data published in IntAct's records for PubMed 26235031.
# B1: Leucine-rich repeat transmembrane protein FLRT3 (Mus musculus), Q8BGT1 (parent)
# chain: MISPAWSLFLIGTKIGLFFQVAPLSVVAKSCPSVCRCDAGFIYCNDRSLTSIPVGIPEDATTLYLQNNQINNVGIPSDLKNLLKVQRIYLYHNSLDEFPTNLPKYVKELHLQENNIRTITYDSLSKIPYLEELHLDDNSVSAVSIEEGAFRDSNYLRLLFLSRNHLSTIPGGLPRTIEELRLDDNRISTISSPSLHGLTSLKRLVLDGNLLNNHGLGDKVFFNLVNLTELSLVRNSLTAAPVNLPGTSLRKLYLQDNHINRVPPNAFSYLRQLYRLDMSNNNLSNLPQGIFDDLDNITQLILRNNPWYCGCKMKWVRDWLQSLPVKVNVRGLMCQAPEKVRGMAIKDLSAELFDCKDSGIVSTIQITTAIPNTAYPAQGQWPAPVTKQPDIKNPKLIKDQRTTGSPSRKTILITVKSVTPDTIHISWRLALPMTALRLSWLKLGHSPAFGSITETIVTGERSEYLVTALEPESPYRVCMVPMETSNLYLFDETPVCIETQTAPLRMYNPTTTLNREQEKEPYKNPNLPLAAIIGGAVALVSIALLALVCWYVHRNGSLFSRNCAYSKGRRRKDDYAEAGTKKDNSILEIRETSFQMLPISNEPISKEEFVIHTIFPPNGMNLYKNNLSESSSNRSYRDSGIPDSDHSHS
# B2: Adhesion G protein-coupled receptor L3 (Mus musculus), Q80TS3 (parent)
# chain: MWPPQLLILTMLLAPVVHGGKHNERHPALAAPLRHAERSPGGALPPRHLLQQPAAERSTAHRGQGPRGAARGVRGPGAPGAQIAAQAFSRAPIPMAVVRRELSCESYPIELRCPGTDVIMIESANYGRTDDKICDSDPAQMENIRCYLPDAYKIMSQRCNNRTQCAVVAGPDVFPDPCPGTYKYLEVQYECVPYKVEQKVFLCPGLLKGVYQSEHLFESDHQSGAWCKDPLQASDKIYYMPWTPYRTDTLTEYSSKDDFIAGRPTTTYKLPHRVDGTGFVVYDGALFFNKERTRNIVKFDLRTRIKSGEAIIANANYHDTSPYRWGGKSDIDLAVDENGLWVIYATEQNNGKIVISQLNPYTLRIEGTWDTAYDKRSASNAFMICGILYVVKSVYEDDDNEATGNKIDYIYNTDQSKDSLVDVPFPNSYQYIAAVDYNPRDNLLYVWNNYHVVKYSLDFGPLDSRSGPVHHGQVSYISPPIHLDSELERPPVRGISTTGSLGMGSTTTSTTLRTTTWNIGRSTTASLPGRRNRSTSTPSPAVEVLDDVTTHLPSAASQIPAMEESCEAVEAREIMWFKTRQGQVAKQPCPAGTIGVSTYLCLAPDGIWDPQGPDLSNCSSPWVNHITQKLKSGETAANIARELAEQTRNHLNAGDITYSVRAMDQLVGLLDVQLRNLTPGGKDSAARSLNKLQKRERSCRAYVQAMVETVNNLLQPQALNAWRDLTTSDQLRAATMLLDTVEESAFVLADNLLKTDIVRENTDNIQLEVARLSTEGNLEDLKFPENMGHGSTIQLSANTLKQNGRNGEIRVAFVLYNNLGPYLSTENASMKLGTEAMSTNHSVIVNSPVITAAINKEFSNKVYLADPVVFTVKHIKQSEENFNPNCSFWSYSKRTMTGYWSTQGCRLLTTNKTHTTCSCNHLTNFAVLMAHVEVKHSDAVHDLLLDVITWVGILLSLVCLLICIFTFCFFRGLQSDRNTIHKNLCISLFVAELLFLIGINRTDQPIACAVFAALLHFFFLAAFTWMFLEGVQLYIMLVEVFESEHSRRKYFYLVGYGMPALIVAVSAAVDYRSYGTDKVCWLRLDTYFIWSFIGPATLIIMLNVIFLGIALYKMFHHTAILKPESGCLDNINYEDNRPFIKSWVIGAIALLCLLGLTWAFGLMYINESTVIMAYLFTIFNSLQGMFIFIFHCVLQKKVRKEYGKCLRTHCCSGKSTESSIGSGKTSGSRTPGRYSTGSQSRIRRMWNDTVRKQSESSFITGDINSSASLNREGLLNNARDTSVMDTLPLNGNHGNSYSIAGGEYLSNCVQIIDRGYNHNETALEKKILKELTSNYIPSYLNNHERSSEQNRNMMNKLVNNLGSGSEDDAIVLDDAASFNHEESLGLELIHEESDAPLLPPRVYSTDNHQPHHYSRRRFPQDHSESFFPLLTDEHTEDLQSPHRDSLYTSMPALAGVPAADSVTTSTQTEAAAAKGGDAEDVYYKSMPNLGSRNHVHPLHAYYQLGRGSSDGFIVPPNKDGASPEGTSKGPAHLVTSL
# partner: B1 chain
# Variants of: B1
# Conditions: with agrl3_mouse Adgrl3, Q80TS3
row,effect of a mutation on the interaction,Variant
1,decreasing interaction strength,R117T
2,decreasing interaction strength,F160A
3,disrupting interaction strength,F160N

# Variants of: B2
# Conditions: with flrt3_mouse Flrt3, Q8BGT1
row,effect of a mutation on the interaction,Variant
1,decreasing interaction strength,D332A
2,disrupting interaction strength,Y323A
